Patent publication US20070213263A1, “Methods And Compositions Using Adiponectin For Treatment Of Cardiac Disorders And For Stimulation Of Angiogenesis” (The Trustees of Boston University, priority 2003, published 2007)

Assays:
rat cardiac myocytes = test: Agonist-stimulated hypertrophy of cultured neonatal rat ventricular myocytes; format: cell-based
Procedure: [^3H] leucine incorporation was determined as previously described 74.
For histological analysis, the mice were sacrificed and LV tissue was obtained at 7 days after TAC. Tissue was embedded in OCT compound (Miles, Elkhart, Ind.) and snap-frozen in liquid nitrogen. Tissue slices (5 μm in thickness) were prepared. Tissue sections were stained with hematoxylin and eosin or with Masson trichrome. The myocyte cross sectional area was calculated by measuring 200 cells per section. To determine sarcomeric F-actin organization, cultured myocytes were stained with FITC-conjugated phalloidin (Sigma, St. Louis, Mo.).

HUVECs [1] = test: Tube formation assay, HUVECs on Matrigel; format: cell-based, human; details: adiponectin 30 μg/ml, VEGF 20 ng/ml, 18 h
Procedure: The formation of vascular-like structures by HUVECs on growth factor-reduced Matrigel (Becton Dickinson) was performed as previously described^28. Twenty-four-well culture plates were coated with Matrigel according to the manufacturer's instructions. […] The degree of tube formation was quantified by measuring the length of tubes in 3 randomly chosen fields from each well using the angiogenic activity quantification program (Kurabo, Osaka, Japan). […]

HUVECs [2] = test: Migration assay (modified Boyden chamber); format: cell-based, human; details: adiponectin 30 μg/ml, VEGF 20 ng/ml, 4 h
Procedure: Migration activity was measured using a modified Boyden chamber assay. Serum-starved cells were trypsinized and resuspended in EGM-2 with 0.5% FBS. Cell suspension (250 μl, 2.0×10^4 cells/well) were added to the transwell fibronectin-coated insert (6.4 mm diameter, 3.0 μm pore size, Becton Dickinson, Franklin Lakes, N.J.). Then 750 μl of EGM-2 with 0.5% FBS supplemented with adiponectin (30 μg/ml), VEGF (20 ng/ml) or bovine serum albumin (BSA) (30 μg/ml) were added to lower chamber and incubated for 4 h. Migrated cells on the lower surface of the membrane were fixed, stained with Giemsa stain solution and eight random microscopic fields per well were quantified. All assays were performed in triplicate.

ERK (Thr 202/Tyr 204) [3] = test: Western blot, ERK phosphorylation in cultured cardiac myocytes; format: cell-based, rat
endothelial cells = test: Cell-wounding assay (unpublished data); format: cell-based
[4] = system: CD31-positive cells in Matrigel plugs; test: Mouse angiogenesis assay (Matrigel plug); format: in vivo, C57BL mice; details: adiponectin 100 μg/ml in plug, subcutaneous, 14 days
Procedure: The formation of new vessels in vivo was evaluated by Matrigel plug assay as described previously^28. For these experiments, 400 μl of Matrigel containing adiponectin (100 μg/ml) or vehicle was injected subcutaneously into the abdomen of C57BL mice. Mice were sacrificed 14 days after the injection. The Matrigel plugs with adjacent subcutaneous tissues were carefully recovered by en bloc resection, fixed in 4% paraformaldehyde, dehydrated with 30% sucrose, and embedded in OCT compound (GTI Microsystems, Tempe, Ariz.) in liquid nitrogen. Immunohistostaining for CD31 (PECAM-1: Becton Dickinson) were performed on adjacent frozen sections. Primary antibody was used at a 1:50 dilution followed by incubation of secondary antibody (HRP-conjugated anti-rat IgG at a 1:100 dilution). The AEC Substrate Pack (Biogenex, San Ramon, Calif.) was used for detection. CD31-positive capillaries were counted in 4 randomly chosen low-power (×100) microscopic fields.

[5] = system: AMPK (Thr 172 of α subunit); test: Western blot, AMPK phosphorylation in HUVECs; format: cell-based, human; details: adiponectin 30 μg/ml
Procedure: (§1) Human umbilical vein endothelium cells (HUVECs) were cultured in endothelial cell growth medium-2 (EGM-2, San Diego, Calif.). Before each experiment, cells were placed in endothelial cell basal medium-2 (EBM-2, San Diego, Calif.) with 0.5% fetal bovine serum (FBS) for 16 h for serum-starvation. Experiments were performed by the addition of the indicated amount of mouse recombinant adiponectin, VEGF or vehicle for the indicated lengths of time. In some experiments, HUVECs were infected with adenoviral constructs encoding dominant-negative AMPKα2^28, dominant-negative AKT1^19 or green fluorescence protein (GFP) at a multiplicity of infection (MOI) of 50 for 24 h. In some experiments, HUVECs were pretreated with LY294002 (10 μM) or vehicle for 1 h before stimulation with adiponectin. Cell lysates were resolved by SDS-PAGE. The membranes were immunoblotted with the indicated antibodies at a 1:1000 dilution followed by the secondary antibody conjugated with horseradish peroxidase (HRP) at a 1:5000 dilution. ECL-PLUS Western Blotting Detection kit (Amersham Pharmacia Biotech, Piscataway, N.J.) was used for detection.

eNOS (Ser 1179) = test: Western blot, eNOS phosphorylation in HUVECs; format: cell-based, human; details: adiponectin 30 μg/ml
Procedure: as §1

Akt (Ser 473) = test: Western blot, Akt phosphorylation in HUVECs; format: cell-based, human; details: adiponectin 30 μg/ml, time course
Procedure: as §1

[6] = system: cornea neovascularization; test: Rabbit corneal angiogenesis assay; format: in vivo, New Zealand white rabbits; details: day 7
Procedure: Rabbit corneal assay was performed with minor modification as previously described^33. Male New Zealand white rabbits weighing 3.0-3.9 kg were used. Two pockets, about 2×3 mm size and 5 mm apart, were surgically prepared in the cornea extending toward a point 2 mm from the limbus. Hydron pellets, which contain indicated amount of adiponectin, VEGF (100 ng) or PBS and enables the slow release of it^34, were implanted into the pocket. On day 7 after surgery, eyes were photographed and cornea neovascularization was examined in a single blind manner. The angiogenic activity was evaluated on the basis of the number and growth rate of newly formed capillaries. An angiogenic score was calculated (vessel density×distance from limbus)^32. A density value of 1 corresponded to 0-25 vessels per cornea, 2 from […], 3 from 50-75, 4 from 75-100 and 5 for >100 vessels.

ERK (Thr 202/Tyr 204) [7] = test: Western blot, ERK phosphorylation in HUVECs; format: cell-based, human; details: adiponectin 30 μg/ml, time course
Procedure: Human umbilical vein endothelium cells (HUVECs) were cultured in endothelial cell growth medium-2 (EGM-2, San Diego, Calif.). Before each experiment, cells were placed in endothelial cell basal medium-2 (EBM-2, San Diego, Calif.) with 0.5% fetal bovine serum (FBS) for 16 h for serum-starvation. Experiments were performed by the addition of the indicated amount of mouse recombinant adiponectin, VEGF or vehicle for the indicated lengths of time. In some experiments, HUVECs were infected with adenoviral constructs encoding dominant-negative AMPKα2^28, dominant-negative AKT1^19 or green fluorescence protein (GFP) at a multiplicity of infection (MOI) of 50 for 24 h. In some experiments, HUVECs were pretreated with LY294002 (10 μM) or vehicle for 1 h before stimulation with adiponectin. Cell lysates were resolved by SDS-PAGE. The membranes were immunoblotted with the indicated antibodies at a 1:1000 dilution followed by the secondary antibody conjugated with horseradish peroxidase (HRP) at a 1:5000 dilution.

[8] = system: AMPK (Thr 172 of the α subunit); test: Western blot, AMPK phosphorylation in cultured cardiac myocytes; format: cell-based, rat; details: adiponectin 30 μg/ml, time course
[9] = adiponectin 30 μg/ml pretreatment, Pro 2 μM, NE 1 μM, 48 hours

Molecule: N#CC(=C(/N)Sc1ccccc1N)/C(C#N)=C(\N)Sc1ccccc1N [U0126, reference compound]
- reduction of αAR-induced hypertrophy (rat cardiac myocytes; p<0.01 vs. control): 82.1±7.8%

Molecule: VEGF [reference compound]
- formation of capillary-like tubes (tube length) (HUVECs [1]): a trend toward increased tube length in the VEGF-treated cultures relative to adiponectin, but this was not statistically significant
- HUVEC migration (HUVECs [2]): a trend toward greater migration with VEGF compared to adiponectin, but this was not statistically significant

B1: adiponectin: Recombinant histidine-tagged mouse adiponectin (amino acids 15-247) expressed in bacteria; adipocyte specific cytokine (protein, UniProt Q15848 19-244, looked up)
Adiponectin: ETTTQGPGVLLPLPKGACTGWMAGIPGHPGHNGAPGRDGRDGTPGEKGEKGDPGLIGPKGDIGETGVPGAEGPRGFPGIQGRKGEPGEGAYVYRSAFSVGLETYVTIPNMPIRFTKIFYNQQNHYDGSTGKFHCNIPGLYYFAYHITVYMKDVKVSLFKKDKAMLFTYDQYQENNVDQASGSVLLHLEVGDQVWLQVYGEGERNGLYADNDNDSTFTGFLLYHDTN
- αAR-stimulated ERK phosphorylation (ERK (Thr 202/Tyr 204) [3]; adiponectin 30 μg/ml pretreatment, Pro 2 μM, NE 1 μM): suppressed
- AngII-stimulated ERK phosphorylation (ERK (Thr 202/Tyr 204) [3]; data not shown): suppressed AngII-stimulated ERK phosphorylation
- ERK phosphorylation, agent alone (ERK (Thr 202/Tyr 204) [3]; without αAR stimulation): no effect on ERK phosphorylation
- endothelial migration in cell-wounding assay (endothelial cells): induced the endothelial migration
- density of CD31-positive cells in Matrigel plugs [4]: significantly higher density of CD31-positive cells compared with controls
- formation of capillary-like tubes (tube length) (HUVECs [1]): promoted the formation of capillary-like tubes in a manner similar to VEGF
- time of maximal AMPK phosphorylation [5]: 15 min
- phosphorylation of AMPK ([5]; time course): enhanced the phosphorylation of AMPK in a time-dependent manner
- eNOS protein levels (eNOS (Ser 1179)): no effect on eNOS protein levels
- eNOS phosphorylation at Ser 1179 (eNOS (Ser 1179); time course): time-dependent increase in eNOS phosphorylation
- HUVEC migration (HUVECs [2]): significantly stimulated HUVEC migration
- αAR-stimulated increase in protein synthesis ([3H] leucine incorporation) (rat cardiac myocytes; [9]): prevented
- αAR-stimulated re-organization of sarcomeric actin (rat cardiac myocytes; [9]): prevented
- AngII-stimulated myocyte hypertrophy (rat cardiac myocytes; data not shown): suppressed
- αAR-stimulated increase in myocyte size (rat cardiac myocytes; pretreatment, then Pro 2 μM and NE 1 μM for 48 hours): prevented
- actin organization, agent alone (rat cardiac myocytes; without αAR stimulation): no effect
- myocyte size, agent alone (rat cardiac myocytes; without αAR stimulation): no effect
- protein synthesis, agent alone (rat cardiac myocytes; without αAR stimulation): no effect
- Akt phosphorylation (Akt (Ser 473)): time-dependent increase in Akt phosphorylation
- stimulatory effect on corneal neovascularization relative to VEGF ([6]; adiponectin 1 μg and 10 μg vs VEGF 100 ng): comparable with that of VEGF
- neovascularization in corneal implants ([6]; pellets with adiponectin 1 μg and 10 μg): markedly accelerated compared with controls
- phosphorylation of ERK (ERK (Thr 202/Tyr 204) [7]): no effect on the phosphorylation of ERK
- phosphorylation of AMPK [8]: stimulated the phosphorylation of AMPK in cultured cardiac myocytes in a time-dependent manner
